Source: US20190234935A1 (Janssen / Centocor, published 2019)

Experiments:
[1] = target: T1, GFRα1 (Retrogenix library, on HEK293 cells) (human, UniProt P56159 25-429); experiment: Retrogenix cell microarray on HEK293 cells
T1 construct: whole, on cells
T1 sequence (looked up): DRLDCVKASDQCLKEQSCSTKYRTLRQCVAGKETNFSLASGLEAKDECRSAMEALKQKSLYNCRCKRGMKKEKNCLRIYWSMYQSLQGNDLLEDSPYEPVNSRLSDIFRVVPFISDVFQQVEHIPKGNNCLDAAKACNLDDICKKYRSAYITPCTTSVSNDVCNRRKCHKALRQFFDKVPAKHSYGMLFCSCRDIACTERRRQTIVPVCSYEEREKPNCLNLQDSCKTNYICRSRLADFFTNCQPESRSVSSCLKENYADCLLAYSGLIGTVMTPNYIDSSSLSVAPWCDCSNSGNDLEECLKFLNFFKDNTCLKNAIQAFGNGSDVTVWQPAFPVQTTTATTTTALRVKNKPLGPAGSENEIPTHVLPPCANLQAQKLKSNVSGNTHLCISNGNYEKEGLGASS
Description: (§1) In parallel, two studies were performed at Retrogenix Ltd (Whaley Bridge, High Peak, Derbyshire, UK) using Retrogenix' Cell Microarray technology to screen for binding partners for the Fc-GDF15 fusion molecule. Two studies were performed to screen Retrogenix's plasma membrane protein library, first on 3500 proteins and second on an additional 993 proteins, with total number of proteins screened being 4493. A background screen was performed prior to the primary screen to detect the background level of binding of the test ligand Fc-GDF15 at 2, 5, and 20 ug/ml with blank slides coated with live HEK293 cells and detected by using an AlexaFluor647 anti-Fc antibody. In the primary screen, vectors encoding each full-length human plasma membrane protein in the library were arrayed in duplicates on Retrogenix's cell microarray slides (referred to as ‘slide-set’). Three replicate slide-set were used in the primary screen. Control expression vector (pIRES-hEGFR-IRES-ZsGreen1) was spotted in quadruplicate on every slide to ensure that a minimal threshold of transfection efficiency had been achieved or exceeded on every slide. HEK293 cells were used for reverse transfection in live conditions. The test ligand Fc-GDF15 was added at the concentration of 20 ug/ml to each slide set. After the addition of test ligand, cell fixation was performed and the AlexaFluor647 anti-Fc antibody was used for binding detection. Fluorescent images were analyzed using ImageQuant software (GE) and a protein ‘hit’ is defined as a duplicate spot showing a raised signal compared to background levels by visual inspection using the images gridded on the ImageQuant software. Hits identified in the primary screen were tested in a confirmation screen, where all vectors encoding the hits in at least one of the three replicate primary screening slide-sets were arrayed on new slides. Confirmation screening was performed similar to the primary screening, with the addition of control samples for binding Fc. Binding of cells overexpressing CD86 to human CTLA4 fused to human Fc, served as a positive control, and binding to Fc alone served as a negative control.

[2] = target: T2, GFRα2 (Retrogenix library, on HEK293 cells) (human, UniProt O00451 22-444); experiment: Retrogenix cell microarray on HEK293 cells
T2 construct: whole, on cells
T2 sequence (looked up): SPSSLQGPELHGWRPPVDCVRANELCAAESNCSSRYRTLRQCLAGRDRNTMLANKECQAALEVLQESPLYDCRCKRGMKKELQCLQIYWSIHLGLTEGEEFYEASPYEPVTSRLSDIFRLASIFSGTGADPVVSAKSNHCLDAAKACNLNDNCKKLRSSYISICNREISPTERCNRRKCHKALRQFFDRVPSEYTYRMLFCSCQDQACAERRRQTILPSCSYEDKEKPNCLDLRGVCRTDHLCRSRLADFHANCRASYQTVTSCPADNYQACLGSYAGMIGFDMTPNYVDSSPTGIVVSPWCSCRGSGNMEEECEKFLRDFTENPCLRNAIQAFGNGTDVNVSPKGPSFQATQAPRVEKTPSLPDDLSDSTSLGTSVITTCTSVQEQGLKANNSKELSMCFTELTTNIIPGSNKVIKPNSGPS
Description: as §1

[3] = target: T3, GFRα3 (Retrogenix library, on HEK293 cells) (human, UniProt O60609 32-374); experiment: Retrogenix cell microarray on HEK293 cells
T3 construct: whole, on cells
T3 sequence (looked up): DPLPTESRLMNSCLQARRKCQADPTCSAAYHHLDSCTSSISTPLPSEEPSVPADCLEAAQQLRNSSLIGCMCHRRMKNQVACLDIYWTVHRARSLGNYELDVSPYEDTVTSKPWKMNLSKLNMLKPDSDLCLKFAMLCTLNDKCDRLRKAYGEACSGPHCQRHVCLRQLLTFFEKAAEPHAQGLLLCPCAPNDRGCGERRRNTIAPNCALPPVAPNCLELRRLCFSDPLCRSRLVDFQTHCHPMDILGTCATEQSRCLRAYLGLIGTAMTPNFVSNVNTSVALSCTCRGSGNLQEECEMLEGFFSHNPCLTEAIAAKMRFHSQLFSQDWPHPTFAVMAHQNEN
Description: as §1

[4] = target: T4, GFRα4 (Retrogenix library, on HEK293 cells) (human, UniProt Q9GZZ7 21-278); experiment: Retrogenix cell microarray on HEK293 cells
T4 construct: whole, on cells
T4 sequence (looked up): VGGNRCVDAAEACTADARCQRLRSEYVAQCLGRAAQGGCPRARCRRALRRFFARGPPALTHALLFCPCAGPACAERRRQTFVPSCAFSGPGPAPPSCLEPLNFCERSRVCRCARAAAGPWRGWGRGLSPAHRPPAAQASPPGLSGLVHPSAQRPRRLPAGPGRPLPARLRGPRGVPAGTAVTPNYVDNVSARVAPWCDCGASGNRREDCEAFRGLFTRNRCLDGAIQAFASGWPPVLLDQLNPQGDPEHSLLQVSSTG
Description: as §1

[5] = target: T5, N-terminally flag tagged full-length GFRAL on transiently transfected HEK293F cells (Homo sapiens (Human), UniProt Q6UXV0 19-394); experiment: FACS on GFRAL-expressing HEK293F cells, dose response
T5 construct: also called GFRAL-overexpressing HEK293F cells; GFRAL-expressing cells
T5 sequence: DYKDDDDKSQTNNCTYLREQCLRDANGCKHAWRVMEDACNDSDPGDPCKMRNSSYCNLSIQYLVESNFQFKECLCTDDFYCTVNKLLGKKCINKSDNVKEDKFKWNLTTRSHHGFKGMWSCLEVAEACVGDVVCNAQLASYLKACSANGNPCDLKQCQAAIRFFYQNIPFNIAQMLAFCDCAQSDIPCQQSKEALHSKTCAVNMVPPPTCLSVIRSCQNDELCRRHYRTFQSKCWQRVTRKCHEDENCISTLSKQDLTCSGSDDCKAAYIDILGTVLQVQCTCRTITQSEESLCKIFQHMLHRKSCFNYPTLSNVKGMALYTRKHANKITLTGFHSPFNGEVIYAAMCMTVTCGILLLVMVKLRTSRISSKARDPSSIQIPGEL

binding result [1]: no binding (tested: 20 ug/ml) | binding result [2]: no binding (tested: 20 ug/ml) | binding result [3]: no binding (tested: 20 ug/ml) | binding result [4]: no binding (tested: 20 ug/ml) | EC50 [5]: 0.258 nM
B1: heterodimeric Fc-GDF15 fusion molecule (Fc fusion)
chain 1: CPPCPAPEAAGGPSVFLFPPKPKDTLMISRTPEVTCVVVDVSQEDPEVQFNWYVDGVEVHNAKTKPREEQFNSTYRVVSVLTVLHQDWLNGKEYKCKVSNKGLPSSIEKTISKAKGQPREPQVYTLPPSQEEMTKNQVSLSCAVKGFYPSDIAVEWESNGQPENNYKTTPPVLDSDGSFFLVSRLTVDKSRWQEGNVFSCSVMHEALHNHYTQKSLSLSLGKGSGGGARNGDHCPLGPGRCCRLHTVRASLEDLGWADWVLSPREVQVTMCIGACPSQFRAANMHAQIKTSLHRLKPDTVPAPCCVPASYNPMVLIQKTDTGVSLQTYDDLLAKDCHCI
chain 2: CPPCPAPEAAGGPSVFLFPPKPKDTLMISRTPEVTCVVVDVSQEDPEVQFNWYVDGVEVHNAKTKPREEQFNSTYRVVSVLTVLHQDWLNGKEYKCKVSNKGLPSSIEKTISKAKGQPREPQVYTLPPSQEEMTKNQVSLWCLVKGFYPSDIAVEWESNGQPENNYKTTPPVLDSDGSFFLYSRLTVDKSRWQEGNVFSCSVMHEALHNHYTQKSLSLSLGK
notes: also called Fc-GDF15 ligand
